The term stoichiometry N denotes a count of units in the complex or per binding partner.

This assay concerns the target monomeric PKG Iβ that lacks the dimerization domain. The assay is described as follows: crystal structure; PKG Iβ holoenzyme lacking the dimerization domain, 2.3 Å; inhibited state.

“monomeric PKG Iβ that lacks the dimerization domain (domain or fragment)” registered a stoichiometry N of 2.

The values are drawn from PMC6694467.
